# Reference: the DeepSol protein solubility set
# Test: soluble on expression in E. coli; label from the status in PepcDB or PDB records
row,Sequence,soluble on expression in E. coli
1,MSAPLYMQIKQFILDKIDSGDWMVGQRIATEIELTEQFGVSRMTVNKAIRDLVNEGKLQRRPRLGTFVCDPSEKSESPLLDIRNIAEEVSDRGRQYSSKVVQQVAIKADDSIAIKLGVMLGTTVFYSEIIHYEDSTPIQLELRWVNSQYAPSYLSQDFTQITPNQYLSNNCPLSAIEHTVEAIVPDNRIKLDLKMQANEPCLLLNRRTWSQDKLVSTALLYHPGNKYKLSSKVLL,not soluble
2,MKLVTISGPPSSGKTAVLAGVIRAMMASGLKVGALKYDCLATNDDDVFRAIGVPVQTGLSGNLCPDHYFVSNIEECLDWGIREGFDFLLSESAGLCNRCAPHIKGVLAVCVIDNLMGATTPKKIGPMLKYADIVVITKGDIVSQAEREVFAFQVRRANPRAKIMHVNGITGQGAGELASQFLLAPETTCLDGSRLRFSMPAALCSYCLGETRIGMEFQLGNVKKIKMSEEPARLEHHHHHH,soluble
3,MGGSHHHHHHGMASPLLTQQIQDEDDQYSLVASLDNVRNLSTILKAIHFREHATCFATKNGIKVTVENAKCVQANAFIQAGIFQEFKVQEESVTFRINLTVLLDCLSIFGSSPMPGTLTALRMCYQGYGYPLMLFLEEGGVVTVCKITTQEPEETLDFDFCSTNVINKIILQSEGLREAFSELDMTSEVLQITMSPDKPYFRLSTFGNAGSSHLDYPKDSDLMEAFHCNQTQVNRYKISLLKPSTKALVLSCKVSIRTDNRGFLSLQYMIRNEDGQICFVEYYCCPDEEVPESES,not soluble
4,MAASLWMGDLEPYMDENFISRAFATMGETVMSVKIIRNRLTGIPAGYCFVEFADLATAEKCLHKINGKPLPGATPAKRFKLNYATY,soluble
5,MGARVTRALRNFNVEKRAEREISKRKPSMAPKHPSTRDLLQEHRSQYPEIEEVVSKKDNKLLSLLRDVYVDSKDPVPALPVKVEPRQEPKEFRLPIGNHFDKNITDIPKGKITVVEALTLLNNHKLSPETWTAEKIAQEYYLELKDVNSLLKYFVTFEVKILPPEDRKAIQSK,soluble
6,GPGSMLNTAFSTADGRRLPRDLTDQQKRDIEEAFRVLDVKGVSTITPNDLKVALRALGYEPDKDAVRKLVAEMDRGGVSSNLVLSEFEDVMRQRFFAEDKDDEVDLAFPLFTEGKSEFISLDDLKRVAAEVGEDIPEDVLQEIIRECDVLDRDGRISREEFNKMLKSDK,soluble
7,MRQIKVVLIGGGTGLSVMARGLREFPIDITAIVTVADNGGSTGKIRDEMDIPAPGDIRNVIAALSDSESVLSQLFQYRFEENQISGHSLGNLLIAGMTNITNDFGHAIKALSKILNIKGRVIPSTNTSVQLNAVMEDGEIVFGETNIPKKHKKIDRVFLEPNDVQPMEEAIDALREADLIVLGPGSLYTSVISNLCVNGISDALIHSDAPKLYVSNVMTQPGETDGYSVKDHIDAIHRQAGQPFIDYVICSTQTFNAQVLKKYEEKHSKPVEVNKAELEKESINVKTSSNLVEISENHLVRHNTKVLSTMIYDIALELISTIPFVPSDKRK,not soluble
8,MQDNSRYTHFLTQHYDAKPQGRDDRYCESIMRRRGLTSDRCKPINTFIHGNKRSIKAICENKNGNPHRENLRISKSSFQVTTCKLHGGSPWPPCQYRATAGFRNVVVACENGLPVHLDQSIFRRP,soluble
9,MGHHHHHHSHAAMAVEPTQIQLSKRWREIESKFAQFRRLNFAQIHTVREETMMVMTEDMPLEISYVPSTYLTEITHVSQALLEVEQLLNAPDLCAKDFEDLFKQEESLKNIKDSLQQSSGRIDIIHSKKTAALQSATPVERVKLQEALSQLDFQWEKVNKMYKDRQGRFDRSVEKWRRFHYDIKIFNQWLTEAEQFLRKTQIPENWEHAKYKWYLKELQDGIGQRQTVVRTLNATGEEIIQQSSKTDASILQEKLGSLNLRWQEVCKQLSDRKKRLEEQKNILSEFQRDLNEFVLWLEEADNIASIPLEPGKEQQLKEKLEQVKLLVEELPLRQGILKQLNETGGPVLVSAPIS,not soluble
10,SAAPPGEYFSVGSQVSCRTCQEQRLQGEVVAFDYQSKMLALKCPSSSGKPNHADILLINLQYVSEVEIINDRTETPRPLASLNVSKLASKARTEKEEKLSQAYAISAGVSLEGQQLFQTIHKTIKDCKWQEKNIVVMEEVVITPPYQVENCKGKEGSALSHVRKIVEKHFRDVESQKILQRSQAQQPQKEAALSS,soluble
11,MIRLIGMEDGKTLEDLVKTKIATDTKHKPRKDAVLCSEMFLSASPEYFRPHDPSLAGEWNDERMVLFAKASITWLKTNYGDKCVRAELHLDEATPHIHAYIVPINDKTKLLSHKEMFGGDGRVGSIKLSKLQDSYAQALAPLGIERGVKGSKATHTKVKEYYQAVNSEPLTAVWSNQKLEHHHHHH,not soluble
12,MPLNERQLDAFADEHAGQIPFDASPRHLAGPGDARHVTHGLAAAGWATISDPLSAEIVMASPDHRYRLQYDPQSATSAWWRLRATSADNEHGWYAEFGELVPAEVLSSLTDALIAPASPQSDPWQPVTSAGWRPDEAGAAHSPDAMCHIERRPTSEFHERPSWHIEVRDAHDTQYPGPRIWHAYLDEHAPDHLVGAFLSALTDQSPLQRGMFDRTAHYSAVKEPSPLRPQQVVDAHTSRVKVLRAQARAMRRQQTAPAKPPAPTTAVQPAARRLEHHHHHH,not soluble
13,MKAFILAAGSGERLEPITHTRPKAFVPILSKPLIEYQIEYLRKCGIRDITVIVSSKNKEYFEKKLKEISIVTQKDDIKGTGAAILSAKFNDEALIIYGDLFFSNEKEICNIITLKENAIIGVKVSNPKDYGVLVLDNQNNLSKIIEKPEIPPSNLINAGIYKLNSDIFTYLDKISISERGELELTDAINLMAKDHRVKVIEYEGYWMDIGKPWNIIDVNKWALDNLVFSQNLGNVEDNVKIKGKVIIEEDAEIKSGTYIEGPVYIGKGSEIGPNSYLRPYTILVEKNKIGASVEVKESVIMEGSKIPHLSYVGDSVIAEDVNFGAGTLIANLRFDEKEVKVNVKGKRISSGRRKLGAFIGGHVRTGINVTILPGVKIGAYARIYPGAVVNRDVGYGEFFKV,soluble
14,MGSDKIHHHHHHMELVKFGKLKEQSYTMKESLRALKTNIQFCGDDIRTLLVTSSVPNEGKSTVALDLARSLTESGNRVLFIDTDMRKSVLAGRLRATAASGGEICGLSHYLSGQRRLEEVMYGTEIPGLFMIFAGPSVPNPTEILEKKYFQELLNFGKEHFNYIIIDCAPIGAAIDAAVVAKYCDGAIIVIGQGMASARMIQSVKKQLEASGVRILGAVLNKVNNKKNSHVSGYYGNYYGSYYGRSDKA,not soluble
15,SINVYLSLFSQGAESITTYTFNTHKAQHTFCKRCGVQSFYTPRSNPGGFGIAPHCLDEGTVRSVVTEEFNGSDWERAMKEHKTIKNMSKE,soluble
16,GSHMASMLPEETILDKLPKDFQERITSSKWKDRVEALEEFWDSVLSQTKKLKSTSQNYSNLLGIYGHIIQKDANIQAVALAAQSVELICDKLKTPGFSKDYVSLVFTPLLDRTKEKKPSVIEAIRKALLTICKYYDPLASSGRNEDMLKDILEHMKHKTPQIRMECTQLFNASMKEEKDGYSTLQRYLKDEVVPIVIQIVNDTQPAIRTIGFESFAILIKIFGMNTFVKTLEHLDNLKRKKIEETVKTL,soluble
17,MMGFEWGFKPSSKITQSTVSSQGTGNVMIPTAGVKQKRRYANEEQEEEELPRNKNVMKYGGVSKRRPQPGSLIRGQPLPLQRGMELMNKNQLQQLLVDLMTKHPEIQQSVHTRVIGLDFSIQKCLDMLKQKSEAVYQSIPYNRSYESNKLDDYAFVRMKPQILEFLNCLVDFILDNIPPRLENLHASLKFLDICTELVIKLPRFELASNNYYYDKCIEQLSHVWCTLIEHVARDRIILLADNSSVWKSHMTRLQVYNEHSNGLLERPLQLFKSLDMGSPSAASSSTLSLQESIIYHHDTMTANENNNNSGSAATDSPFN,soluble
18,MRIKPECALCITRQVVDVAKEITDDKSEQFKIIAWGIEKISEAYGESSVPSFMGTEIHRHIKKMSKNSDPYKNLKNVANEFALKYLNDVEKLLESDDELERLQNKVKLSIAGNVIDFGPYSTGVNIEKMVKDTLDGKLDVDFSKELLDELKNSKKVFYTCDNAGEIVFDLPLIKELKNYVEVVVSVKGSPILNDATLDDVKTAGIDKVTKVITSGTDAIGVRFEESSEEFINELNSSDFVIAKGMGNYESLTEYEEKHGQNSEKIPVYYILKAKCEPVAEHIGVSEGDNVLLRKEISKVLEHHHHHH,soluble
19,MAHHHHHHMASVDTQWAIKSILQLGHHHLRHGAETTSSSSSCLVRPTSPPFRSASKAVQVTAMPRLMRASCDPSYVILLAKRPSGIAGVSLRPGNRVPWTGLPAAASSLVSAPCSKKTRLLASYLQRRGFATIRPVATDTHSSPSQFRPVQRSMPLLLHTSHLIGWKLNDASPAFPVYAHTLAELQQLRSSDVAALKPQHCLIANEYCEWDNWREVLGEPGWDLFSADEDAVERLLQDGLAISALEEEAGLYPVEVL,not soluble
20,MGSDKIHHHHHHMHTDVNQLFAALWDDYVEMTPSAAKVHQLLAKGETIINDHIALRTFNIAKVNLSVLAKHFESLGYVACGDYDFEAKKLKAKHFEHPDPTQPKVFISELMVEAFSPELQAIVHGLVEQVDEAATTADNFLYSGRHWELDYATYEQLLAESEYAAWVAAFGYRANHFTVSINHLPGYNTILEVNETLKQGDFVLNSVGGEVKGSADVLLEQSSTMADKVNVAFKDVQKTIPSCFYEFALRYPKADGELYTGFVAASADKIFESTNNAG,not soluble
21,MEWKGRDVISIRDFSKEDIEVVLSTAERLEKEMKEKGQLEYAKGKILATLFFEPSTRTRLSFESAMHRLGGSVIGFAEASTSSVKKGESLRDTIKTVEQYSDVIVIRHPKEGAARLAAEVADIPVINAGDGSNQHPTQTLLDLYTIKKEFGTIDGLKIGLLGDLKYGRTVHSLAEALAFYDVELYLISPELLRMPKHIVEELRERGMKIVETTKLEEVIGELDVLYVTRIQKERFPDEQEYLKVKGSYQVNLKILENVKDSLRIMHPLPRVDEIHPEVDKTKHAIYFKQVFNGVPVRMALLALVLGVI,soluble
22,MANSAGSMQQILNQFNHVVAIGGGHGLGRVLSSLDFLGNRLTGIVATTDNGGSTGRLRAEQDCIAWGDLRNCLSQLAHRPSVGSQLFEYRFQGETELSGHNLGNLMLLALDKLCVRPLEAVNLIRHMLKIETNIIPMSEQPTHLVALQASGSKVFGEVNVDKMNEAPIALCLEPQVNATTEACEAIRRADLIILGPGSFLTSIMPPLLLPCFAKALAMTTAPVVFIDNLNEEASPAGQFSIEQRISWCHQVIGKPVITKVLRHSEQLRLGTLVNYFPLRNRHNPQLHDQASLRDALCAVLRIKSGLPLETLVSLEHHHHHH,not soluble
23,MGSDKIHHHHHHMQEYKACAAHTDILKKYGFKVEKGFANFETAYKASYKKQNGPRIAILAEYDALPKIGHGCGHNAYGVTSIAGGILIKELIQKLDLQGEILVIGTPAEETNGAKVDMAKLGIFNDIDVAMSVHPSGEAHIRSGKSHAMEALQFTFKGKTAHAAASPHEGINALDGVLNLFNSINALRQQILSSARIHGIISNGGEAANIIPDLAIANFYVRAETLEYLKELVKKVKNCAKGAALASDTELEITNYETSFANLVTNKKLMKLYEKNLRTLGVTDIRDKEGLGSTDMGDVSHCCPTIHPYFPLTTRHLVGHTIEFATATIQEEAYKGMKEACLAMALSCLDIFEKPEILKEIKEEFYQTFKK,not soluble
